From US20020199219A1 (UNIVERSITY OF CALIFORNIA SAN DIEGO, published 2002)

Target: T1, ABH1 polypeptide (Arabidopsis thaliana, UniProt Q9SIU2 1-848)
T1 construct: Tested in a yeast two-hybrid experiment and expressed in yeast cells; also called Arabidopsis CBP80 homolog
T1 sequence: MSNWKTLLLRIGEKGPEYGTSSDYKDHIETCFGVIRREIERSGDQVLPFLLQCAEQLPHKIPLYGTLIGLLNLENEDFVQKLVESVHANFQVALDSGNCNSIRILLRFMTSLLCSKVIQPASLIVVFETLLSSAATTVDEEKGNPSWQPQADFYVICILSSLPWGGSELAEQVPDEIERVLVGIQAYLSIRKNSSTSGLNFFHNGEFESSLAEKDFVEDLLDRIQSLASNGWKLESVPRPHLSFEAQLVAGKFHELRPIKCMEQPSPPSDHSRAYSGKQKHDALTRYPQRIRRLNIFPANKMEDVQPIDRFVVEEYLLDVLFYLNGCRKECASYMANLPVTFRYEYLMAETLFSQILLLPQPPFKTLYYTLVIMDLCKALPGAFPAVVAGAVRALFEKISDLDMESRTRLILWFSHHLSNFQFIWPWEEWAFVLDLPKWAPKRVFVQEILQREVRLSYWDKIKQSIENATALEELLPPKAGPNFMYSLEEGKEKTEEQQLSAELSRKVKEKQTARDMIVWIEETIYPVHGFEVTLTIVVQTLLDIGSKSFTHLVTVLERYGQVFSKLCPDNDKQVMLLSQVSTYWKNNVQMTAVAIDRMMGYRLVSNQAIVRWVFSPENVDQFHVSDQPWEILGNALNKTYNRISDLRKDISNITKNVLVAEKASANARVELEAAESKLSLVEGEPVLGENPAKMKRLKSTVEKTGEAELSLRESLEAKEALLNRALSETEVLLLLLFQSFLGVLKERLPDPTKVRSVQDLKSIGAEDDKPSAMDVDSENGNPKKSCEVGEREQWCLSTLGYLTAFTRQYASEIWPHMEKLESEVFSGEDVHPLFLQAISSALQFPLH
Assay: yeast two-hybrid

B1: Arabidopsis CBP20 homolog (AtCBP20) (other, UniProt Q9XFD1 1-257, looked up)
chain: MASLFKEQAKLSAYRDRRFSGTQEEFDEALRASTTVYIGNVSFYTTEEQLYELFSRAGEIKKIIMGLDKNTKTPCGFCFVLFYSREDTEDAVKYISGTILDDRPIRVDFDWGFQEGRQWGRGRSGGQVRDEYRTDYDPARGGYGKLVQKELEAQRQLVDYGTGSLGAYPQAAPTNYGNGRRGGGNYGQGGQNRHGRGDYHRKRQRDDDRYGRDNSRRNTDHESRRDTDSDMRPEKNPRFRESGDSDDDGEDDRKRRS
notes: The limits of the construct and the two-hybrid fusion domains are not described
B1: binds.
